Experimental data published in publication doi:10.1101/2024.07.16.603699 (bioRxiv, 2024).

B2: Saccharolobus solfataricus ribosomal protein aS34 (natural protein, UniProt Q97ZK4 1-72, looked up)
chain: MSIKNRGSNAYGHLGWLTVYCRICNRKLIIGTDILYKCPKCEKKYSAYFCEADKRGLKGKCPYCGTELVPIL

Tests used:
Assay in all cases: cryo-EM structure
[1] = target: T1, Saccharolobus solfataricus ribosomal protein uS13 (S. solfataricus (endogenous in the …, UniProt P95986 1-165))
T1 sequence (looked up): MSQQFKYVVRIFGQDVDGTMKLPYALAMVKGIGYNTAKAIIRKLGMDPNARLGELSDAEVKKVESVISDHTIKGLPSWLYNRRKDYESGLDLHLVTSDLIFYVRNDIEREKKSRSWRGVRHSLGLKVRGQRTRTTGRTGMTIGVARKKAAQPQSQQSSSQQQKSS

[2] = target: T2, Saccharolobus solfataricus ribosomal protein uS3 (S. solfataricus (endogenous in the …, UniProt Q9UXA0 1-229))
T2 sequence (looked up): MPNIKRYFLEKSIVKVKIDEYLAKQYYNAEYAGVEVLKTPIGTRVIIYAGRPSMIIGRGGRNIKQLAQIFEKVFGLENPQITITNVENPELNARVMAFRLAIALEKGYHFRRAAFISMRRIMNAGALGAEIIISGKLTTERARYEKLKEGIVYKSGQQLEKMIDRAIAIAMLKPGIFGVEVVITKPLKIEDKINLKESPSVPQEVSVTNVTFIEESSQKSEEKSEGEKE

[3] = target: B2

B1: Saccharolobus solfataricus ribosomal protein eS25 (natural protein, UniProt Q97ZZ6 1-110, looked up)
chain: MGGASKKPISTMEKRLKKEAEKQQKAEEKKKGPSKTGKEIISRAVTIDEETKKKVLDEIKKESIITPYALATKSGISISVARKILKELENQNVVKLYSKNRRLEIYIAAS
- binding result [1]: binds

Binder: B2
- binding result [2]: binds

B3: Saccharolobus solfataricus ribosomal protein uS14 (natural protein, UniProt Q97ZQ5 1-54, looked up)
chain: MGKYKPPAERKYGKGVQSCQRCGSKDSVIQKYGIYLCRQCFREVAYELGFRKYW
- binding result [3]: binds
